Legend:
[1] = target: 人血小板生成素受体 (人c-Mpl) (human) (UniProt P40238); experiment: cell-based or functional assay
[2] = target: 人血小板生成素受体 (人c-Mpl) (human) (UniProt P40238); experiment: flow cytometry on FM3A-hMpl cells

激动活性 (UT-7/TPO细胞增殖试验), relative to 7-10G4344uhm (of the original level) [1]: 0.1
结合活性 relative to the original 7-10G4344uhm (of the original level) [2]: 0.1
B1: 7-10G4344uhm轻链突变抗体 7-10VL_Y94F (antibody, part only; not given: heavy chain, not shown: a dimerising Fc or GST)
light: AIQLTQSPSSLSASVGDRVTITCRASQGISSALAWYQQKPGKAPKLLIYDASSLESGVPSRFSGSGSGTDFTLTISSLQPEDFATYYCQQFNSFPLTFGGGTKVEIK
